The target of assay [1] is recombinant human melanocortin-4 receptor hMCR-4 (human) (UniProt P32245). Put plainly: competition with [I125]-NDP-α-MSH; HEK-293 hMCR-4 membrane homogenates.
For assay [2], the target named is recombinant human melanocortin-1 receptor hMCR-1a (human) (UniProt Q01726). As to the kind of experiment: competition with [I125]-NDP-α-MSH; HEK-293 hMCR-1a membrane homogenates.

Bridge positions count the residues as written; N and C are the ends. Square brackets hold non-standard residues; d marks the D form. Nle = CCCC[C@H](N)C(=O)O; Dab = NCC[C@H](N)C(=O)O

Chain of recombinant human melanocortin-1 receptor hMCR-1a (human) (Q01726 whole entry): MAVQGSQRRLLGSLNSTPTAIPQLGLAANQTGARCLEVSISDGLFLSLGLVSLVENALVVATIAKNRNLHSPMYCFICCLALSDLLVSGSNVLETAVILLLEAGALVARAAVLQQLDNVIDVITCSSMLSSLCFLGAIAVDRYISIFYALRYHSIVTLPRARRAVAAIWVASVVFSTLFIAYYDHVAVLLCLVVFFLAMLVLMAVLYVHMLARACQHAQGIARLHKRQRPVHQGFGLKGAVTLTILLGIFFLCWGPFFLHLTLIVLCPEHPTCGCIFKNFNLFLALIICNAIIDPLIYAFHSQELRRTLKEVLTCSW
Chain of recombinant human melanocortin-4 receptor hMCR-4 (human) (P32245 whole entry): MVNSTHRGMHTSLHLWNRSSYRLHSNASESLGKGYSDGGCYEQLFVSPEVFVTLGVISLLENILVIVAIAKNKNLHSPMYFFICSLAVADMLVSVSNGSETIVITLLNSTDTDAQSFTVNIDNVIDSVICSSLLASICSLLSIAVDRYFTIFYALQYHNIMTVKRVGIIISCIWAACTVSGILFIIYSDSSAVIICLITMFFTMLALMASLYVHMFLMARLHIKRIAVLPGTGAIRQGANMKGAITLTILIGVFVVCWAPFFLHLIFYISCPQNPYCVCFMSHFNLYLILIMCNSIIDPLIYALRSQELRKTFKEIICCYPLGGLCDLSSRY

B1: Ac-Nle-cyclo(Glu-His-D-Phe-Gly-Dab)-Trp-NH2 (SEQ ID NO: 50) (peptide)
peptide: Ac-[Nle]EH[dF]G[Dab]W-NH2
modifications: lactam 2-6
SMILES: CCCC[C@H](NC(C)=O)C(=O)N[C@H]1CCC(=O)NCC[C@@H](C(=O)N[C@@H](Cc2c[nH]c3ccccc23)C(N)=O)NC(=O)CNC(=O)[C@@H](Cc2ccccc2)NC(=O)[C@H](Cc2c[nH]cn2)NC1=O
By Ki is commonly meant a measure of affinity in units of concentration, obtained from inhibition or displacement. Consider B1, for which the Ki in assay [1] was 10000 nM; in assay [2] it was 9 nM.

B2: Ac-Nle-cyclo(Glu-His-D-Phe-Ala-Dab)-Trp-NH2 (peptide)
peptide: Ac-[Nle]EH[dF]A[Dab]W-NH2
modifications: lactam 2-6
SMILES: CCCC[C@H](NC(C)=O)C(=O)N[C@H]1CCC(=O)NCC[C@@H](C(=O)N[C@@H](Cc2c[nH]c3ccccc23)C(N)=O)NC(=O)[C@H](C)NC(=O)[C@@H](Cc2ccccc2)NC(=O)[C@H](Cc2c[nH]cn2)NC1=O
Regarding B2, the Ki in assay [2] stood at 0.08 nM.

B3: Ac-Nle-cyclo(Glu-His-D-Phe-Arg-Dab)-Lys-NH2 (SEQ ID NO: 55) (peptide)
peptide: Ac-[Nle]EH[dF]R[Dab]K-NH2
modifications: lactam 2-6
SMILES: CCCC[C@H](NC(C)=O)C(=O)N[C@H]1CCC(=O)NCC[C@@H](C(=O)N[C@@H](CCCCN)C(N)=O)NC(=O)[C@H](CCCNC(=N)N)NC(=O)[C@@H](Cc2ccccc2)NC(=O)[C@H](Cc2c[nH]cn2)NC1=O
Turning to B3, the Ki in assay [1] is 7380 nM; in assay [2], 2 nM.

B4: Ac-Nle-cyclo(Glu-His-D-Phe-Ala-Dab)-Trp-NH2 (SEQ ID NO: 51) (peptide)
peptide: Ac-[Nle]EH[dF]A[Dab]W-NH2
modifications: lactam 2-6
SMILES: CCCC[C@H](NC(C)=O)C(=O)N[C@H]1CCC(=O)NCC[C@@H](C(=O)N[C@@H](Cc2c[nH]c3ccccc23)C(N)=O)NC(=O)[C@H](C)NC(=O)[C@@H](Cc2ccccc2)NC(=O)[C@H](Cc2c[nH]cn2)NC1=O
Regarding B4, the Ki in assay [1] was 10000 nM; in assay [2] it was 0.08 nM.

The values above are taken from patent US20120225828A1.
